Assay [1] concerns the target T1, human LILRB2 (human, UniProt Q8N423 22-597).
T1 construct: whole, on cells; also called hLILRB2
As to the kind of experiment: FACS, 293F-hLILRB2 cells. Background: Flow cytometry measures light scatter and fluorescence of single cells or particles in a stream.

Assay [2] has as its target T2, human LILRB1 (human, UniProt Q8NHL6 24-650).
T2 construct: whole, on cells; also called hLILRB1
In words: FACS, 293F-hLILRB1 cells.

Assay [3] concerns the target T3, human LILRA5 (human, UniProt A6NI73 42-299).
T3 construct: whole, on cells; also called hLILRA5
As to the kind of experiment: FACS, 293F-hLILRA5 cells.

In assay [4] the target is T4, human LILRB3 (human, UniProt O75022 24-631).
T4 construct: whole, on cells; also called hLILRB3
In words: FACS, 293F-hLILRB3 cells.

Assay [5] addresses T5, human LILRA4 (human, UniProt P59901 24-499).
T5 construct: whole, on cells; also called hLILRA4
In words: FACS, 293F-hLILRA4 cells.

Assay [6] concerns the target T6, human LILRA1 (human, UniProt O75019 17-489).
T6 construct: whole, on cells; also called hLILRA1
As to the kind of experiment: FACS, 293F-hLILRA1 cells.

Assay [7] concerns the target T7, human LILRA3 (human, UniProt Q8N6C8 24-439).
T7 construct: whole, on cells; also called hLILRA3
As to the kind of experiment: FACS, 293F-hLILRA3 cells.

Assay [8] has as its target T8, human LILRB5 (human, UniProt O75023 24-590).
T8 construct: whole, on cells; also called hLILRB5
In words: FACS, 293F-hLILRB5 cells.

For assay [9], the target named is T9, human LILRB4 (human, UniProt Q8NHJ6 22-448).
T9 construct: whole, on cells; also called hLILRB4
In words: FACS, 293F-hLILRB4 cells. Here is the method: The subcloning plates were screened by protein or cell-based ELISA, and the subclones with good binding ability were expanded to 24-wells for confirmation tests. The specificity and cross-reactivity of these subclones were confirmed with FACS analysis. […] Fluorescent dye-conjugated secondary antibody was used to detect the binding of the primary antibody with the cells. Median fluorescence intensity (MFI) was measured by FACS analysis. […]

Assay [10] concerns the target T10, human LILRA2 (human, UniProt Q8N149 24-483).
T10 construct: whole, on cells; also called hLILRA2
As to the kind of experiment: FACS, 293F-hLILRA2 cells.

T3 sequence (A6NI73 42-299): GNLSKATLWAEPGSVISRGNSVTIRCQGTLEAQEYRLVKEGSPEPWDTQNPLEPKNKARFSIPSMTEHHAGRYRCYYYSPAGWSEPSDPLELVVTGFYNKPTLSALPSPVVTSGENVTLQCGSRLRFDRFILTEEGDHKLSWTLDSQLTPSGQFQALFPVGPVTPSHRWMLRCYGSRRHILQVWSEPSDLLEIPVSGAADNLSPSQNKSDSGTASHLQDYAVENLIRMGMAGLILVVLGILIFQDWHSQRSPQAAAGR
T2 sequence (Q8NHL6 24-650): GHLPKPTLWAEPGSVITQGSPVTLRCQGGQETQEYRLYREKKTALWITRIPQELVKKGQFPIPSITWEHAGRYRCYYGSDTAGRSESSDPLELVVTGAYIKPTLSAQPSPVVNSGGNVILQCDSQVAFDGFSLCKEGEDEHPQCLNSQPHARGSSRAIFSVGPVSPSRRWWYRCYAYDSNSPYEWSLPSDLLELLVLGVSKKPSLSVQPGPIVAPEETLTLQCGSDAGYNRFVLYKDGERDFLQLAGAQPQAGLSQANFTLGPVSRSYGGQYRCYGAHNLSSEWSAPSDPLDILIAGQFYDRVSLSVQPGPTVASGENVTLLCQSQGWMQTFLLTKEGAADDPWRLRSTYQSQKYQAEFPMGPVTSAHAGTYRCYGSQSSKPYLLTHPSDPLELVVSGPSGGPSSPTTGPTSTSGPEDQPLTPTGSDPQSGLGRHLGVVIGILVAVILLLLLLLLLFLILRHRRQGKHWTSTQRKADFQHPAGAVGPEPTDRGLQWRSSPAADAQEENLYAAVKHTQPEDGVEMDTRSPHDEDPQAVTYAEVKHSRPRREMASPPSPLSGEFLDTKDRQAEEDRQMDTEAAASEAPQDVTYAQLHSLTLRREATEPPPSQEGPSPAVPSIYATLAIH
T8 sequence (O75023 24-590): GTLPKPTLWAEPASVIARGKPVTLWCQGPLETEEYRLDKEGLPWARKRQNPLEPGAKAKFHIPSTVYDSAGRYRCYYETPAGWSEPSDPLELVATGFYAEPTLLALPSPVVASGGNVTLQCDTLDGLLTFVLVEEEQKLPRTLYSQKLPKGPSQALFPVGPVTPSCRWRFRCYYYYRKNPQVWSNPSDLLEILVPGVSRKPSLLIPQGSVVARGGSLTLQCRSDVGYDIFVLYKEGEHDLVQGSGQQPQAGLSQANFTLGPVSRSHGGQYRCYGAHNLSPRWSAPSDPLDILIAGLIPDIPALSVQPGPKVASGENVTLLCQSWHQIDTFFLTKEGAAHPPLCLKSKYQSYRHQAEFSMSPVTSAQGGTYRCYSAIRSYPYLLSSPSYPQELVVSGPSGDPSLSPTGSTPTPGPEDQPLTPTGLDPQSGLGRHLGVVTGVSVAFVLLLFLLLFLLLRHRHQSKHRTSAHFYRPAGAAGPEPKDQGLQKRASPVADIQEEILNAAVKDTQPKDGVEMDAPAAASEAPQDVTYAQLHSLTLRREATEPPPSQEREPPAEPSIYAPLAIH
T7 sequence (Q8N6C8 24-439): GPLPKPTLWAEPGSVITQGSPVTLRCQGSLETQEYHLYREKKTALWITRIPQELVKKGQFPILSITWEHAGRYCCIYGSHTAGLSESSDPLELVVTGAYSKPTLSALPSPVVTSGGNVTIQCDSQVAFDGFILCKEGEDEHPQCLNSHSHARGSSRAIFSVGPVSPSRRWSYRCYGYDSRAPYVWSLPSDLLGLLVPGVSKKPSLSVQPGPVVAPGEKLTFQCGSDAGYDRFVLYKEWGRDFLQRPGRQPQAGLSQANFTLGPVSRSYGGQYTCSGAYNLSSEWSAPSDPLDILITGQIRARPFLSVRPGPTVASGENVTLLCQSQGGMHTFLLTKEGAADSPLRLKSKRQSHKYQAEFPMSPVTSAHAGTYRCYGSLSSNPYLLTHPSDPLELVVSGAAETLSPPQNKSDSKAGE
T1 sequence (Q8N423 22-597): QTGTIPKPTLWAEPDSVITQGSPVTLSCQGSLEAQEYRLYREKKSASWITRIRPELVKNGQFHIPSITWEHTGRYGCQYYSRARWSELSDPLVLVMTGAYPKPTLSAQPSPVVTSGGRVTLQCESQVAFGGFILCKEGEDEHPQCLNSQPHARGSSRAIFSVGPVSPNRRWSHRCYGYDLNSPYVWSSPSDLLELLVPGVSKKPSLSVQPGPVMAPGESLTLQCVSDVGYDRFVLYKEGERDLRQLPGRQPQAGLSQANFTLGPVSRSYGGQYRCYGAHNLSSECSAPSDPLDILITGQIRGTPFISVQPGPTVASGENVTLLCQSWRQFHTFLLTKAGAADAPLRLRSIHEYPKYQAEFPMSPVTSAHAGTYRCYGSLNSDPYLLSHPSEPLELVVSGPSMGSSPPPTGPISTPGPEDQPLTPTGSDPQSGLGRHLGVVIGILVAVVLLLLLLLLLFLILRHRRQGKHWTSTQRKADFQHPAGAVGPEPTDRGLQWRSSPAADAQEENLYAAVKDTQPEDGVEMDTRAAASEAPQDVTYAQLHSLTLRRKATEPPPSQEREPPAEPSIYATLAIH
T6 sequence (O75019 17-489): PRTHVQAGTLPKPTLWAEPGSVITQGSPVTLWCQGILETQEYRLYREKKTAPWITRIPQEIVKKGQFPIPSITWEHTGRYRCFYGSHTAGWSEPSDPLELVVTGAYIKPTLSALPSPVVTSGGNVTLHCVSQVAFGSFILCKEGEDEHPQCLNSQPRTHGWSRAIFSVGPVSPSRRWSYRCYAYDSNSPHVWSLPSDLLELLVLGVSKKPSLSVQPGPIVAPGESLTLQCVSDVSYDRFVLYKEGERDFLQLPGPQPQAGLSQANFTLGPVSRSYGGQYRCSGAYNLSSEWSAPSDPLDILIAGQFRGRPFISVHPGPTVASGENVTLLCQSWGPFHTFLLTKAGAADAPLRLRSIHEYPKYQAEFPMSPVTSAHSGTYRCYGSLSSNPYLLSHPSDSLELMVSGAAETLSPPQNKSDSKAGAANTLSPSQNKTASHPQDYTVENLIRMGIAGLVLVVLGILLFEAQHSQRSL
T10 sequence (Q8N149 24-483): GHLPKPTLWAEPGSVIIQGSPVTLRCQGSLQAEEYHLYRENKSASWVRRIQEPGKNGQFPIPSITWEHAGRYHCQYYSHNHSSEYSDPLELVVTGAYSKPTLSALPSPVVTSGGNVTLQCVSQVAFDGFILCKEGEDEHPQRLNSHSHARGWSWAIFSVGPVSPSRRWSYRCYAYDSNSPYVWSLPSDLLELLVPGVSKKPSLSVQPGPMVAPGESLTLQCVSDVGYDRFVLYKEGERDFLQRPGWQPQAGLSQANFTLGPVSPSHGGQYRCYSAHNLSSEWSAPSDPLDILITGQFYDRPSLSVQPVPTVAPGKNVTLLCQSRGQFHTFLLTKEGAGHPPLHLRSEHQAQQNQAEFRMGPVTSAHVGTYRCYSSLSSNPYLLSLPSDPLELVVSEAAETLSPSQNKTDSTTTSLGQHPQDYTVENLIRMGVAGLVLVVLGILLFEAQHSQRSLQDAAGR
T4 sequence (O75022 24-631): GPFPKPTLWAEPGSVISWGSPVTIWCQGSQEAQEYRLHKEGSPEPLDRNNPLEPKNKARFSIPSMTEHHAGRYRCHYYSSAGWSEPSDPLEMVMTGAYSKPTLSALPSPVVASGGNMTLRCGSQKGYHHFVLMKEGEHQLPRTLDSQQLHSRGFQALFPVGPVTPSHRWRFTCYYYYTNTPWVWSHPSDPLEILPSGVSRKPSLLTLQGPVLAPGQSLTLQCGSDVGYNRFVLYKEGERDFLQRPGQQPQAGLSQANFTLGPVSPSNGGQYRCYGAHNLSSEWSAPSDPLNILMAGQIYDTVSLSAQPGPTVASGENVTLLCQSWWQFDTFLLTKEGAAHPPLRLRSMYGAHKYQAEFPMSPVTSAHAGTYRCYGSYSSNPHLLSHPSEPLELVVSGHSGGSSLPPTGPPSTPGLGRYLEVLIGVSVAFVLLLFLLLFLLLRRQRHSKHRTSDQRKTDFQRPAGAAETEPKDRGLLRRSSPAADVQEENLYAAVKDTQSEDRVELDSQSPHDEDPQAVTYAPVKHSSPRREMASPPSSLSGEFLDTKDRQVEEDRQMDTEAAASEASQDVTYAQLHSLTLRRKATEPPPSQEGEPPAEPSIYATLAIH
T5 sequence (P59901 24-499): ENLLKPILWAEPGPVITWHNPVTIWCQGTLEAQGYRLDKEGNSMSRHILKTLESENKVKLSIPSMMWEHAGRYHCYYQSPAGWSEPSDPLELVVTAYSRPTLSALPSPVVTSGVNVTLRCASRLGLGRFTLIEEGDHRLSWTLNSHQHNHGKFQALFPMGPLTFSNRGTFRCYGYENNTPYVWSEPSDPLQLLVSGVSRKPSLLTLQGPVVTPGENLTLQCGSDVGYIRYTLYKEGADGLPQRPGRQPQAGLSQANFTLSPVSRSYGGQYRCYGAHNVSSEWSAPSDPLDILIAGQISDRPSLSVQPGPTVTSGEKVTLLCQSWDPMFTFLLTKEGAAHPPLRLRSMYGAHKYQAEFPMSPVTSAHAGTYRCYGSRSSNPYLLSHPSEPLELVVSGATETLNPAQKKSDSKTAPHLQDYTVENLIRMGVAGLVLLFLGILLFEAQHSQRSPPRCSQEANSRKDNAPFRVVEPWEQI

B1: 44-F10-B6-D4 (antibody, V domains shown)
VH: EVHLVESGGGLVKPGGSLKLSCAASGFTFSSYAMSWVRQTPEKRLEWVATISSGGSYIYYPDSVKGRFTISRDNAKNTLYLQMSSLRSEDTAMYYCARQDWDGGDYYAMDYWGQGTSVTVSS
VL: DIVMTQSPSSLAVSAGEKVTMSCKSSQSVLYSSNQKNFLAWYQQKPGQSPKLLIYWASTRESGVPDRFTGSGSGTDFTLTISSVQAEDLAVYYCHQYLSSLTFGAGTKLELK
notes: mouse monoclonal hybridoma antibody
As for B1, the MFI in assay [1] is 38.2 MFI; in assay [2], 38.4 MFI; in [3], 26.8 MFI; in assay [4], 31.6 MFI; in assay [5] it was 24.4 MFI; in assay [6] it was 25.6 MFI. The MFI in assay [7] was 22.5 MFI; in assay [8] it was 26.6 MFI; in assay [9] it was 84.9 MFI; in [10] it was 24.8 MFI.

B2: 36-F4-H1-D9 (antibody, V domains shown)
VH: EVKLLESGGGLVQPGGSLKLSCAASGFDFSRYWMIWVRQAPEKGLEWIGEINPDSSTINYTPSLKDKFIISRDNAKNTLYLQMSKVRSEDTALYYCARPYYRYDVGYFDVWGAGTTVTVSS
VL: DIVMTQAPKVLLVSAGDRVTISCKASQSVSNAVVWYQQKPGQSPKLLIFYASNRYTGVPDRFTGSGYGTDFTFSISTVQAEDLAVYFCQQDYSSPWTFGGGTKLEIK
notes: as for B1
B2: the MFI came out at 26.5 MFI in assay [1]; 25.7 MFI in [2]; 20.3 MFI in [3]; 23.5 MFI in [4]; 20.7 MFI in assay [5]; 22.1 MFI in [6]. Besides, the MFI in [7] is 18.6 MFI; in assay [8], 17 MFI; in [9], 898 MFI; in assay [10], 16.5 MFI.

B3: 26-H9-B9-B7 (antibody, V domains shown)
VH: EVQRVESGGGLVQPGGSRKLSCAASGFTFSSFGMHWVRQAPEKGLEWVAYISSGSSTIYYADTVKGRFTISRDNPKNTLFLQMTSLRSEDTAMYYCARSDGKGAMDYWGQGTSVTVSS
VL: DIVMTQSTSSLSASLGDRVTISCRASQDISNYLNWYQQKPDGTVKLLIYYTSRLHSGVPSRFSGSGSGTDYSLTISNLEQEDIATYFCQQGNTLPWTFGGGTKLEIK
notes: as for B1
Turning to B3, the MFI in assay [1] was determined as 28.8 MFI; in [2], 20.8 MFI; in [3], 19.6 MFI; in assay [4] it was 23.6 MFI; in [5], 19.4 MFI; in assay [6] it was 21.3 MFI. Further, the MFI in assay [7] is 19.1 MFI; in assay [8], 19.6 MFI; in assay [9], 441 MFI; in [10], 17.9 MFI.

B4: 27-D11-C2-A10 (antibody, V domains shown)
VH: EVQLVESGGGLVQPGGSRKLSCAASGFTFSVFGVHWVRQAPEKGLEWVAYISSGSNTIHYADTVKGRFTISRDIPKNTLFLQMTSLRSEDTAMYYCARSSGTGAMDYWGQGTSVTVSS
VL: DIQMTQSTSSLSASLGDRVSISCRASQDISNYLNWYQQKPDGAVKLLIYYTSRLHSGVPSRFSGSGSGTDYSLTISNLDQEDIATYFCQQGNTLPWTFGGGTKLELK
notes: as for B1
Take B4: the MFI was found to be 28.3 MFI in assay [1]; 20.8 MFI in assay [2]; 17.2 MFI in [3]; 19.7 MFI in assay [4]; 19.6 MFI in [5]; 21.6 MFI in assay [6]. For the same molecule, the MFI in assay [7] came out at 17.2 MFI; in [8], 18.8 MFI; in assay [9], 588 MFI; in [10], 17.8 MFI.

B5: 7-B4-C1-C9 (antibody, V domains shown)
VH: EVQLQQSGTELVKPGASVKLSCKASGYTFTNYWMHWVKQRPGQGLEWIGEINPSNGRTNYNEKFKTKATLTVDKSSSTAYMQLSSLTSEDSAVYYCARSTYYGYDWYFDVWGAGTTVTVSS
VL: DIVLTQSPSSMYASLGERVTITCKASQDINSYLSWFQQKPGKSPKTLIYRANRLLDGVPSRFSGGGSGQDYSLTISSLEHEDMGIYYCLQCDEFPHTFGGGTKLEIK
notes: as for B1
With B5, the MFI in [1] amounted to 32.2 MFI; in assay [2], 27.7 MFI; in assay [3], 28.2 MFI; in assay [4], 26.1 MFI; in assay [5], 26.2 MFI; in assay [6] it was 27.5 MFI. The MFI in assay [7] came to 25.2 MFI; in [8], 17.8 MFI; in [9], 3950 MFI; in assay [10], 21.6 MFI.

B6: 48-E11-H7-B5 (antibody, V domains shown)
VH: EVQLVESGGGLVKPGGSLKLSCAASGFTFSSYAMSWVRQTPEKRLEWVASITIGDDTYYPDSVKGRFTISRDHAKNILYLQVSSLRSEDTAMYSCARGVNSYGSSYRYFDVWGAGTTVTVSS
VL: DIVMTQSHKFMSTSVGDRVSITCKASQDVSTAVAWYQQKPGQSPKLLIYWASTRHTGVPDRFTGSGSGTDYTLTISSVQAEDLALYYCQQHYSIPFTFGAGTKLEK
notes: as for B1
Consider B6, for which the MFI in assay [1] is 45.8 MFI; in assay [2], 27.3 MFI; in assay [3] it was 359 MFI; in assay [4], 26.7 MFI; in [5] it was 24.3 MFI; in assay [6], 25.1 MFI. The MFI in assay [7] turned out to be 24.1 MFI; in assay [8], 18.9 MFI; in assay [9], 2760 MFI; in assay [10], 22.6 MFI.

B7: 2-H8-C9-F7-E2 (antibody, V domains shown)
VH: EVQLQQSGAELVKPGASVKLSCKASGYTFTNYWMHWVKQRPGQGLEWIGEINPSNGRTNYNEKFKSKATLTVDKSSSTAYMQLSSLTSEDSAVYYCARGSLTTVVPFDYWGQGTTLTVSS
VL: DIQMTQTPSSLSASLGGKVTITCKASQDINNYIAWYQHKPGKGPRLLIHYTSTLQPGIPSRFSGSGSGRDYSFSISNLEPEDIATYFCLQYDILLTFGGGTKLEK
notes: as for B1
As for B7, the MFI in assay [1] turned out to be 28.8 MFI; in [2] it was 25.4 MFI; in assay [3], 22.6 MFI; in [4] it was 26.7 MFI; in [5], 23 MFI; in [6], 22.6 MFI. Also, the MFI in [7] turned out to be 21.7 MFI; in [8], 21.6 MFI; in assay [9], 1710 MFI; in [10], 19.7 MFI.

B8: 4-E6-E4-B12 (antibody, V domains shown)
VH: EVQLKESGAELVKPGASVKLSCKASGYTFTSHWMHWVKQRPGQGLEWIGEINPSNGRTNYNEKFTSKATLTVDQSSSTAYMQLSSLTSEDSAVYYCARGNLTTVVPFDYWGQGTALTVSS
VL: DIVMTQSPSSLSASLGGKVTITCKASQDINKFIAWYQHKPGKGPRLLIHFTSTLQPGIPSRFSGSGSGRDYSFSISNLEPEDIATYFCLQYDLLLTFGGGTKLEIK
notes: as for B1
As for B8, the MFI in assay [1] stood at 58 MFI; in assay [2], 23.6 MFI; in assay [3], 32.6 MFI; in [4], 27.1 MFI; in [5] it was 23.2 MFI; in assay [6], 24.4 MFI. Further, the MFI in assay [7] worked out at 23.7 MFI; in [8], 21.4 MFI; in [9] it was 1530 MFI; in [10], 21.9 MFI.

B9: 42-C8-A12-F3-D11 (antibody, V domains shown)
VH: EVHLVESGGDLVKPGGSLKLSCAASGFTFSSHGMSWVRQTPDKRLEWVATISSGGIYTYHPDSVKGRFSISRDNAKKTLYLQMSSLKSEDTGIYYCTRGQVGNWYFDVWGAGTTVTVSS
VL: DIVITQSPAIMSASPGEKVTINCSASSSVSYMHWFQQTPGTSPKLWIYSTSNLASGVPARFSGSGSGTFYSLTISRMEAEDAATYYCQQRSSYPLTFGAGTKLELK
notes: as for B1
With B9, the MFI in assay [1] is 34.5 MFI; in assay [2], 29.6 MFI; in assay [3] it was 27.9 MFI; in [4] it was 602 MFI; in [5], 27.2 MFI; in [6], 27.3 MFI. For the same molecule, the MFI in assay [7] amounted to 24.5 MFI; in assay [8], 22.2 MFI; in assay [9], 1290 MFI; in assay [10] it was 28.1 MFI.

B10: 25-G9-G4-C12 (antibody, V domains shown)
VH: EVQLVESGGDLVKPGGSLKLSCAASGFTFSSHGMSWVRQTPDKRLEWVATINSGGYYTYYPDSVKGRFTISRDNAKNTLYLQMSSLKSEDTAMYYCARGQLGNWYFDVWGAGTTVTVSS
VL: DIVMTQSPAIMSASPGEKVTITCSASSSVSYMHWFQQKPGTSPKLWIYSTSNLASGVPARFSGSGSGTSYSLTISRMEAEDAATYYCQQRSSYPLTFGAGTKLELK
notes: as for B1
For the molecule B10, the MFI was 32.8 MFI in assay [1]; 26 MFI in assay [2]; 25.3 MFI in assay [3]; 25.2 MFI in assay [4]; 22.7 MFI in [5]; 24.3 MFI in [6]. Also, the MFI in [7] is 18.6 MFI; in [8], 22.9 MFI; in assay [9], 383 MFI; in assay [10], 21.7 MFI.

Values taken from patent US20250361295A1 (ANTENGENE BIOLOGICS, published 2025).
